The assay addresses VEGF (UniProt P15692). Briefly: SPR (BIAcore). The note with it: Fab. For orientation: SPR reads the build-up and loss of mass on a sensor chip optically.

Sequence of VEGF (P15692 other isoform, or with tags, fused parts or gaps): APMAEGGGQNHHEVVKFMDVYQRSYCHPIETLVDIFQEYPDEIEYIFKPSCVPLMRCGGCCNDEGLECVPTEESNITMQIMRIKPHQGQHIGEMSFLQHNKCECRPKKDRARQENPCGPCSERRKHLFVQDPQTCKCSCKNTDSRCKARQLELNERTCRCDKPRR

Broadly, the Kd is the constant that tells how readily two partners part at equilibrium. Lower therefore signals tighter binding. anti-VEGF Fab (Lucentics) control registered a Kd of 0.103 nM.

The record behind these values is patent US20190203192A1.
